Measured values reported in patent publication US20190136246A1 (CSIR, published 2019).
Residue numbers refer to the chain shown, from its start.

T1: BTV-8 VP3 (SEQ ID NO:1) (Bluetongue virus serotype 8, UniProt P12435 1-901)
T1 sequence: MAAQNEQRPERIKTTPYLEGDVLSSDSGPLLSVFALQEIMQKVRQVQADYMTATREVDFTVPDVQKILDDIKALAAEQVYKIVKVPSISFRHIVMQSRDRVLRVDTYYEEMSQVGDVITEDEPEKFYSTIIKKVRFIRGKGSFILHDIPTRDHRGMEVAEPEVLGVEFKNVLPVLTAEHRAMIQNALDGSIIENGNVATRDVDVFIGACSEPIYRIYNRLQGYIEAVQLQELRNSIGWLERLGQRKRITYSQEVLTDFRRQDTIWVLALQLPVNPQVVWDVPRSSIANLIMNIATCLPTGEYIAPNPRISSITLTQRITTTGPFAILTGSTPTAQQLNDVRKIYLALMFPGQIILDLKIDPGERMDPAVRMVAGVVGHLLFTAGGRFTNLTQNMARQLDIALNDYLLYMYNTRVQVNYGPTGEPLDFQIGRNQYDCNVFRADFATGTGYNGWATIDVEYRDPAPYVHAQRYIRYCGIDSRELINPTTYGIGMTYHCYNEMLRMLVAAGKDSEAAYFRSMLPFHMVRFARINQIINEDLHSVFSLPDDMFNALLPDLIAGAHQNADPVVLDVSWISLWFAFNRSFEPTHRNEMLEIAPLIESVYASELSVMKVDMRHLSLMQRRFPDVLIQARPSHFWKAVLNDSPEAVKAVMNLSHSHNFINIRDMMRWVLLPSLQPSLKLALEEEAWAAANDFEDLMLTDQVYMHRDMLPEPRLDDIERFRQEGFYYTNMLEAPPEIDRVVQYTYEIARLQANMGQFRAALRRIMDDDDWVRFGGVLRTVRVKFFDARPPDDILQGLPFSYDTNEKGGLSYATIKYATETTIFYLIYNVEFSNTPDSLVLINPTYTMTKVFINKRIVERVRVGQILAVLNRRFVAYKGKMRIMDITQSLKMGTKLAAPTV

T2: BTV-8 VP7 (SEQ ID NO:6) (Bluetongue virus serotype 8, UniProt P69361 1-349)
T2 sequence: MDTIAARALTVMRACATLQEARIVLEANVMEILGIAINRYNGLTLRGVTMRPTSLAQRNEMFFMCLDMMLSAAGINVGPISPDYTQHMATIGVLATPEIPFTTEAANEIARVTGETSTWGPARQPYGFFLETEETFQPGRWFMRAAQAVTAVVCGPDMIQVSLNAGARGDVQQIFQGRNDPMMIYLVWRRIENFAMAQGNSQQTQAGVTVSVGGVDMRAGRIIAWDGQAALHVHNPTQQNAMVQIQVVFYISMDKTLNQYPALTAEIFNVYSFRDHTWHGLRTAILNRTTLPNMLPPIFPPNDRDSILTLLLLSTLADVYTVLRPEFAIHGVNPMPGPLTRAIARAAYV

B1: BTV-8 VP7 (SEQ ID NO:5) (other)
chain: T2 sequence
B2: BTV-8 VP3 (SEQ ID NO:2) (other)
chain: T1 sequence with M548V

How the values were obtained:
BTV-8 VP3 (SEQ ID NO:1) = molecular target: T1, BTV-8 VP3 (SEQ ID NO:1); assay: particle assembly on co-expression in N. benthamiana; iodixanol gradient, TEM
BTV-8 VP7 (SEQ ID NO:6) = molecular target: T2, BTV-8 VP7 (SEQ ID NO:6); assay: CLP assembly on co-expression; sucrose gradient, TEM (FIG. 13)

Binder	binding result (BTV-8 VP3 (SEQ ID NO:1))	binding result (BTV-8 VP7 (SEQ ID NO:6))
B1	binds	
B2		binds
